Reference: the supplement of paper PMC12042874
± gives the uncertainty stated by the source.

Assay: amyloid nucleation score (Sup35N fusion, yeast selection) (log enrichment); library NNK2; higher = more nucleation; inactive = no reads after selection
How it was run: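 On medium lacking adenine and uracil, psi-negative yeast expressing peptides of 20 random codons fused to Sup35N were grown 7 days at 30°C after a 24-hour induction with 100 μM copper sulfate. Illumina sequencing of input and output plasmid inserts gave the reads, and sequences under 100 input reads were excluded. The nucleation score is the DiMSum log enrichment of output over input reads, centred on the mode score of non-aggregating sequences.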

Question: Which amyloid nucleation score does the source give for VVRAVYGYQFYGIVL here?
Answer: 0.648 ± 0.25

Question: Which amyloid nucleation score does the source give for RIFVWVGSVWFWGVS here?
Answer: 3.55 ± 0.13

Question: For WMLCLDLKANKMCLMVISME, which amyloid nucleation score is on record?
Answer: -1.32 ± 0.76

Question: Which amyloid nucleation score does the source give for DACYGITLDCCETLARSMSC here?
Answer: -0.382 ± 0.76

Question: With IMLLNLYKDGSGGRRSKLLQ as the substance, how does the amyloid nucleation score read?
Answer: -0.09 ± 0.33

Question: For NFKECNLDCKSHLRNVWLRQ, which amyloid nucleation score is on record?
Answer: inactive

Question: For HCHWWEGWRVEVYCLFPVTT, which amyloid nucleation score is on record?
Answer: 7.852 ± 0.064

Question: Which amyloid nucleation score does the source give for YDNMC here?
Answer: -0.72 ± 0.35

Question: For GDFLWNLWVYHNY, which amyloid nucleation score is on record?
Answer: 1.05 ± 0.17

Question: For LGFMNCSLMHAGRVGPREHF, which amyloid nucleation score is on record?
Answer: 2.72 ± 0.13

Question: For VTKVLQFCSPSYLLYSRLNV, which amyloid nucleation score is on record?
Answer: 0.709 ± 0.47

Question: For TSAENRLMMAEARKYCVRSF, which amyloid nucleation score is on record?
Answer: 3.66 ± 0.087

Question: With DREVSRVGLD as the substance, how does the amyloid nucleation score read?
Answer: 1.29 ± 0.34

Question: Which amyloid nucleation score does the source give for SVSNVPRGWSLTRGLSTVPG here?
Answer: 0.828 ± 0.22

Question: With IRVNMSVTITRGWICHRLCK as the substance, how does the amyloid nucleation score read?
Answer: 0.293 ± 0.27

Question: For QSLHRGR, which amyloid nucleation score is on record?
Answer: -0.311 ± 1.1

Question: Which amyloid nucleation score does the source give for IVKYLVCEQTKILCMMCTCD here?
Answer: 8.891 ± 0.068

Question: For RQYFNVLDCWGIGVFGHKG, which amyloid nucleation score is on record?
Answer: 1.34 ± 0.3

Question: For IELLYIRYK, which amyloid nucleation score is on record?
Answer: -2.09 ± 1.1

Question: For AMFVLVGFEFY, which amyloid nucleation score is on record?
Answer: 1.47 ± 0.11

Question: For HYAFVLGYKFYYGVANYCDG, which amyloid nucleation score is on record?
Answer: 0.886 ± 0.66

Question: With CESENKQYKNRLEIP as the substance, how does the amyloid nucleation score read?
Answer: -2.05 ± 0.54

Question: Which amyloid nucleation score does the source give for REFMNFWHWRVCICAQE here?
Answer: -0.501 ± 0.38

Question: For KVIPVALNTRIAWGTHRLMM, which amyloid nucleation score is on record?
Answer: 0.958 ± 0.27

Question: For DNLSGMIPTKTVDSSRP, which amyloid nucleation score is on record?
Answer: 0.611 ± 0.81

Question: Which amyloid nucleation score does the source give for RKKMGFF here?
Answer: inactive

Question: For SDSTSVLPGRTYWVHFSAQG, which amyloid nucleation score is on record?
Answer: 0.086 ± 0.61

Question: With ESHFCLLATVMKDNLTVGSM as the substance, how does the amyloid nucleation score read?
Answer: -0.578 ± 0.45

Question: With FRSGGPLFFHSMGTGFVFVH as the substance, how does the amyloid nucleation score read?
Answer: -1.5 ± 1.1

Question: With RESWLAGMSVYWANSGMSFA as the substance, how does the amyloid nucleation score read?
Answer: -0.487 ± 0.36

Question: With ALNLIV as the substance, how does the amyloid nucleation score read?
Answer: -0.572 ± 0.32

Question: Which amyloid nucleation score does the source give for DDFNERSSLHVVYDRF here?
Answer: -0.901 ± 1

Question: For HAPPNCVSSIHSRRVSSWHE, which amyloid nucleation score is on record?
Answer: 0.333 ± 0.65

Question: With LLRDSVY as the substance, how does the amyloid nucleation score read?
Answer: -0.817 ± 1.1

Question: Which amyloid nucleation score does the source give for KSQLYNYAVSM here?
Answer: -1.59 ± 0.64

Question: Which amyloid nucleation score does the source give for VNRSTELHFIVMREMVWLKS here?
Answer: -0.287 ± 0.62

Question: With DLVVMSLRR as the substance, how does the amyloid nucleation score read?
Answer: 6.18 ± 0.057

Question: For GIMSFG, which amyloid nucleation score is on record?
Answer: 1.66 ± 0.43

Question: With YIRCYRNV as the substance, how does the amyloid nucleation score read?
Answer: -0.536 ± 0.33

Question: With ELVVHFFLFIMGACLHVENQ as the substance, how does the amyloid nucleation score read?
Answer: -0.368 ± 1

Question: Which amyloid nucleation score does the source give for HMSGLNGLGCLGTCLWLCSS here?
Answer: inactive

Question: With NMVHNDRSRKVKLSWCATFK as the substance, how does the amyloid nucleation score read?
Answer: 7.609 ± 0.058

Question: Which amyloid nucleation score does the source give for TIKRLLKDFPLIFLRISGST here?
Answer: inactive

Question: With FDGRETQENGNSYMCEGW as the substance, how does the amyloid nucleation score read?
Answer: 0.419 ± 0.5

Question: For TTEYG, which amyloid nucleation score is on record?
Answer: 0.239 ± 0.5

Question: Which amyloid nucleation score does the source give for MTIGFNAIYHQFRVTRCLVT here?
Answer: 0.545 ± 0.53

Question: With NSHRKNHFIGGWDFTCEIYN as the substance, how does the amyloid nucleation score read?
Answer: inactive

Question: For YIGVIT, which amyloid nucleation score is on record?
Answer: 5.38 ± 0.1

Question: For SCRRWHLFLGWCIDVVESIY, which amyloid nucleation score is on record?
Answer: 1.56 ± 0.13

Question: With YMFDFYFVLYESKYAWINPK as the substance, how does the amyloid nucleation score read?
Answer: inactive

Question: Which amyloid nucleation score does the source give for VYCVDIFCTESLVCPTQTWG here?
Answer: 6.055 ± 0.06

Question: With ILYLGHN as the substance, how does the amyloid nucleation score read?
Answer: -1.61 ± 0.64

Question: With MANSTLRV as the substance, how does the amyloid nucleation score read?
Answer: 0.314 ± 0.39

Question: For SKIVCDMFLGHEDLPCTRLF, which amyloid nucleation score is on record?
Answer: 0.057 ± 1.1

Question: With HCVMLHGGSPRHLNRRTDIC as the substance, how does the amyloid nucleation score read?
Answer: 0.292 ± 0.27

Question: For ITMSYTLGPSCFFWSLADTY, which amyloid nucleation score is on record?
Answer: 8.218 ± 0.065

Question: For HVKASGP, which amyloid nucleation score is on record?
Answer: 0.339 ± 0.35

Question: Which amyloid nucleation score does the source give for TNDLIRKFTLYMNQCDFNWS here?
Answer: -0.633 ± 1.1

Question: Which amyloid nucleation score does the source give for KMDTRSRLKQWKRFFIHIPK here?
Answer: -0.92 ± 0.49

Question: For LARFSDMDKMKGSVGFWALK, which amyloid nucleation score is on record?
Answer: -0.014 ± 0.62

Question: With AYLTTREAVGLFNKACLASY as the substance, how does the amyloid nucleation score read?
Answer: 0.439 ± 0.74

Question: For GCSAQACYK, which amyloid nucleation score is on record?
Answer: 1.03 ± 0.23

Question: Which amyloid nucleation score does the source give for IELFVSWKIGWVELRDVLLV here?
Answer: -0.055 ± 0.55

Question: For VLITKYSFTRLEFTIKVTSS, which amyloid nucleation score is on record?
Answer: 0.386 ± 0.57

Question: Which amyloid nucleation score does the source give for QSMMSFMSRNVFRFFMGKVT here?
Answer: inactive

Question: With RTFYFYGRHR as the substance, how does the amyloid nucleation score read?
Answer: -1.11 ± 1.1

Question: With NWGFISVLVALPWVWGLRPG as the substance, how does the amyloid nucleation score read?
Answer: -0.387 ± 0.42

Question: For ARNSVKHSFFQVRRLHGSWD, which amyloid nucleation score is on record?
Answer: 0.367 ± 0.38

Question: With SLPIVEDITGYPLRSHWG as the substance, how does the amyloid nucleation score read?
Answer: 0.172 ± 0.27

Question: With VKWTTVVD as the substance, how does the amyloid nucleation score read?
Answer: 0.963 ± 0.26

Question: For YYVVLGSSM, which amyloid nucleation score is on record?
Answer: -0.018 ± 0.42

Question: For NLDDYPG, which amyloid nucleation score is on record?
Answer: 1.66 ± 0.25

Question: Which amyloid nucleation score does the source give for LYSLYTYVKRYCASRVRHRY here?
Answer: 0.688 ± 0.81

Question: For SVRFAC, which amyloid nucleation score is on record?
Answer: -0.114 ± 1.1

Question: For FRVFCMHSED, which amyloid nucleation score is on record?
Answer: 2.47 ± 0.12

Question: For RGVLTSSLFPSKGRWVVGHW, which amyloid nucleation score is on record?
Answer: 2.35 ± 0.075

Question: For RSKMNRLMVLRSRVRWWYNE, which amyloid nucleation score is on record?
Answer: 0.485 ± 0.32

Question: For QVGFPWFGRQVKDYLLLYKP, which amyloid nucleation score is on record?
Answer: 0.22 ± 0.4

Question: For SRSSTCGSRGLTGNRGGGIG, which amyloid nucleation score is on record?
Answer: 0.299 ± 0.45

Question: For QNYARL, which amyloid nucleation score is on record?
Answer: -1.22 ± 1.1

Question: With SYVVPGFISASFYLCYCTSK as the substance, how does the amyloid nucleation score read?
Answer: 3.03 ± 0.12

Question: With TSLSVVSGFLAFSGSPHSGT as the substance, how does the amyloid nucleation score read?
Answer: 4.39 ± 0.05

Question: Which amyloid nucleation score does the source give for FNYWPYVLNWWELLYQDDAT here?
Answer: 1.11 ± 0.23

Question: With SRCLSSITVLTCNHMSVKAC as the substance, how does the amyloid nucleation score read?
Answer: 0.224 ± 0.8

Question: With IYPLWLMKSGIRLLCGKMCL as the substance, how does the amyloid nucleation score read?
Answer: 0.607 ± 0.34

Question: For LDLGAPPWH, which amyloid nucleation score is on record?
Answer: 1.03 ± 0.36
